Assay results: patent US20230250154A1 (CYTONICS, published 2023)

T1: ADAMTS4 (human, UniProt O75173 213-685, limits assumed)
T1 sequence (looked up): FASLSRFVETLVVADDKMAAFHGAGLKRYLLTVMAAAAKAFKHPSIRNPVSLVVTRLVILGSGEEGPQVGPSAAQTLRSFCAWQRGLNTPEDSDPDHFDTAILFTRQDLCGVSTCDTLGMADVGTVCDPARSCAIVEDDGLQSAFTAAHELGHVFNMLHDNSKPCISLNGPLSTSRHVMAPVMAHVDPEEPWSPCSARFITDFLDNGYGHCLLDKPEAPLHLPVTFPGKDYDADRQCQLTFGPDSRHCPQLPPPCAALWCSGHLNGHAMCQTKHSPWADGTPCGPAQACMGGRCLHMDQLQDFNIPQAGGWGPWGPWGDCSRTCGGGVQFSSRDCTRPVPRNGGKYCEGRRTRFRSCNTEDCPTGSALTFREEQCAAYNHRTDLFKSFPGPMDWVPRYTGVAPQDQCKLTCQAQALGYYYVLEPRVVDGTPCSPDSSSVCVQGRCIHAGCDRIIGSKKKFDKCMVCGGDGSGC

T2: ADAMTS5 (human, UniProt Q9UNA0 262-622, limits assumed)
T2 sequence (looked up): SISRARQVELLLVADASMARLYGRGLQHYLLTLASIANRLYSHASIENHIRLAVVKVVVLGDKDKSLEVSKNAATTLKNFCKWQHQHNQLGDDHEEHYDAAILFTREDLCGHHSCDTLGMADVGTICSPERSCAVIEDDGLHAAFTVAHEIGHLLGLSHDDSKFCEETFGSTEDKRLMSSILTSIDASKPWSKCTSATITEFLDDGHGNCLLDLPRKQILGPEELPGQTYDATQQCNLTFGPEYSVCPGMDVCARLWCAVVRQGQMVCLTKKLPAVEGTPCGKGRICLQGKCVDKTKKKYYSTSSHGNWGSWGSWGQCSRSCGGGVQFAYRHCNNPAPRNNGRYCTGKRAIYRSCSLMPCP

B1: Variant A2M, bait region SEQ ID NO 120 (other)
chain: SVSGKPQYMVLVPSLLHTETTEKGCVLLSYLNETVTVSASLESVRGNRSLFTDLEAENDVLHCVAFAVPKSSSNEEVMFLTVQVKGPTQEFKKRTTVMVKNEDSLVFVQTDKSIYKPGQTVKFRVVSMDENFHPLNELIPLVYIQDPKGNRIAQWQSFQLEGGLKQFSFPLSSEPFQGSYKVVVQKKSGGRTEHPFTVEEFVLPKFEVQVTVPKIITILEEEMNVSVCGLYTYGKPVPGHVTVSICRKYSDASDCHGEDSQAFCEKFSGQLNSHGCFYQQVKTKVFQLKRKEYEMKLHTEAQIQEEGTVVELTGRQSSEITRTITKLSFVKVDSHFRQGIPFFGQVRLVDGKGVPIPNKVIFIRGNEANYYSNATTDEHGLVQFSINTTNVMGTSLTVRVNYKDRSPCYGYQWVSEEHEEAHHTAYLVFSPSKSFVHLEPMSHELPCGHTQTVQAHYILNGGTLLGLKKLSFYYLIMAKGGIVRTGTHGLLVKQEDMKGHFSISIPVKSDIAPVARLLIYAVLPTGDVIGDSAKYDVENCLANKVDLSFSPSQSLPASHAHLRVTAAPQSVCALRAVDQSVLLMKPDAELSASSVYNLLPEKDLTGFPGPLNDQDDEDCINRHNVYINGITYTPVSSTNEKDMYSFLEDMGLKAFTNSKIRKPKMCPQLEEEGVEEGKEEEGLGSGPAGAARGSELEGRGSPTEGEARGSKLRKYFPETWIWDLVVVNSAGVAEVGVTVPDTITEWKAGAFCLSEDAGLGISSTASLRAFQPFFVELTMPYSVIRGEAFTLKATVLNYLPKCIRVSVQLEASPAFLAVPVEKEQAPHCICANGRQTVSWAVTPKSLGNVNFTVSAEALESQELCGTEVPSVPEHGRKDTVIKPLLVEPEGLEKETTFNSLLCPSGGEVSEELSLKLPPNVVEESARASVSVLGDILGSAMQNTQNLLQMPYGCGEQNMVLFAPNIYVLDYLNETQQLTPEIKSKAIGYLNTGYQRQLNYKHYDGSYSTFGERYGRNQGNTWLTAFVLKTFAQARAYIFIDEAHITQALIWLSQRQKDNGCFRSSGSLLNNAIKGGVEDEVTLSAYITIALLEIPLTVTHPVVRNALFCLESAWKTAQEGDHGSHVYTKALLAYAFALAGNQDKRKEVLKSLNEEAVKKDNSVHWERPQKPKAPVGHFYEPQAPSAEVEMTSYVLLAYLTAQPAPTSEDLTSATNIVKWITKQQNAQGGFSSTQDTVVALHALSKYGAATFTRTGKAAQVTIQSSGTFSSKFQVDNNNRLLLQQVSLPELPGEYSMKVTGEGCVYLQTSLKYNILPEKEEFPFALGVQTLPQTCDEPKAHTSFQISLSVSYTGSRSASNMAIVDVKMVSGFIPLKPTVKMLERSNHVSRTEVSSNHVLIYLDKVSNQTLSLFFTVLQDVPVRDLKPAIVKVYDYYETDEFAIAEYNAPCSKDLGNADYKDDDDKGASHHHHHH
B2: Variant A2M, bait region SEQ ID NO 121 (other)
chain: SVSGKPQYMVLVPSLLHTETTEKGCVLLSYLNETVTVSASLESVRGNRSLFTDLEAENDVLHCVAFAVPKSSSNEEVMFLTVQVKGPTQEFKKRTTVMVKNEDSLVFVQTDKSIYKPGQTVKFRVVSMDENFHPLNELIPLVYIQDPKGNRIAQWQSFQLEGGLKQFSFPLSSEPFQGSYKVVVQKKSGGRTEHPFTVEEFVLPKFEVQVTVPKIITILEEEMNVSVCGLYTYGKPVPGHVTVSICRKYSDASDCHGEDSQAFCEKFSGQLNSHGCFYQQVKTKVFQLKRKEYEMKLHTEAQIQEEGTVVELTGRQSSEITRTITKLSFVKVDSHFRQGIPFFGQVRLVDGKGVPIPNKVIFIRGNEANYYSNATTDEHGLVQFSINTTNVMGTSLTVRVNYKDRSPCYGYQWVSEEHEEAHHTAYLVFSPSKSFVHLEPMSHELPCGHTQTVQAHYILNGGTLLGLKKLSFYYLIMAKGGIVRTGTHGLLVKQEDMKGHFSISIPVKSDIAPVARLLIYAVLPTGDVIGDSAKYDVENCLANKVDLSFSPSQSLPASHAHLRVTAAPQSVCALRAVDQSVLLMKPDAELSASSVYNLLPEKDLTGFPGPLNDQDDEDCINRHNVYINGITYTPVSSTNEKDMYSFLEDMGLKAFTNSKIRKPKMCPQLEPESSGEAIPMSIPTSEDLVVQIPENFFGVEAEGTGGERGVLGKLRKYFPETWIWDLVVVNSAGVAEVGVTVPDTITEWKAGAFCLSEDAGLGISSTASLRAFQPFFVELTMPYSVIRGEAFTLKATVLNYLPKCIRVSVQLEASPAFLAVPVEKEQAPHCICANGRQTVSWAVTPKSLGNVNFTVSAEALESQELCGTEVPSVPEHGRKDTVIKPLLVEPEGLEKETTFNSLLCPSGGEVSEELSLKLPPNVVEESARASVSVLGDILGSAMQNTQNLLQMPYGCGEQNMVLFAPNIYVLDYLNETQQLTPEIKSKAIGYLNTGYQRQLNYKHYDGSYSTFGERYGRNQGNTWLTAFVLKTFAQARAYIFIDEAHITQALIWLSQRQKDNGCFRSSGSLLNNAIKGGVEDEVTLSAYITIALLEIPLTVTHPVVRNALFCLESAWKTAQEGDHGSHVYTKALLAYAFALAGNQDKRKEVLKSLNEEAVKKDNSVHWERPQKPKAPVGHFYEPQAPSAEVEMTSYVLLAYLTAQPAPTSEDLTSATNIVKWITKQQNAQGGFSSTQDTVVALHALSKYGAATFTRTGKAAQVTIQSSGTFSSKFQVDNNNRLLLQQVSLPELPGEYSMKVTGEGCVYLQTSLKYNILPEKEEFPFALGVQTLPQTCDEPKAHTSFQISLSVSYTGSRSASNMAIVDVKMVSGFIPLKPTVKMLERSNHVSRTEVSSNHVLIYLDKVSNQTLSLFFTVLQDVPVRDLKPAIVKVYDYYETDEFAIAEYNAPCSKDLGNADYKDDDDKGASHHHHHH
B3: Variant A2M, bait region SEQ ID NO 123 (other)
chain: SVSGKPQYMVLVPSLLHTETTEKGCVLLSYLNETVTVSASLESVRGNRSLFTDLEAENDVLHCVAFAVPKSSSNEEVMFLTVQVKGPTQEFKKRTTVMVKNEDSLVFVQTDKSIYKPGQTVKFRVVSMDENFHPLNELIPLVYIQDPKGNRIAQWQSFQLEGGLKQFSFPLSSEPFQGSYKVVVQKKSGGRTEHPFTVEEFVLPKFEVQVTVPKIITILEEEMNVSVCGLYTYGKPVPGHVTVSICRKYSDASDCHGEDSQAFCEKFSGQLNSHGCFYQQVKTKVFQLKRKEYEMKLHTEAQIQEEGTVVELTGRQSSEITRTITKLSFVKVDSHFRQGIPFFGQVRLVDGKGVPIPNKVIFIRGNEANYYSNATTDEHGLVQFSINTTNVMGTSLTVRVNYKDRSPCYGYQWVSEEHEEAHHTAYLVFSPSKSFVHLEPMSHELPCGHTQTVQAHYILNGGTLLGLKKLSFYYLIMAKGGIVRTGTHGLLVKQEDMKGHFSISIPVKSDIAPVARLLIYAVLPTGDVIGDSAKYDVENCLANKVDLSFSPSQSLPASHAHLRVTAAPQSVCALRAVDQSVLLMKPDAELSASSVYNLLPEKDLTGFPGPLNDQDDEDCINRHNVYINGITYTPVSSTNEKDMYSFLEDMGLKAFTNSKIRKPKMCPQLESQELGQRESESEGSELEGRGSGFKEGVEGKEEEGLGSGFFGFPIGKLRKYFPETWIWDLVVVNSAGVAEVGVTVPDTITEWKAGAFCLSEDAGLGISSTASLRAFQPFFVELTMPYSVIRGEAFTLKATVLNYLPKCIRVSVQLEASPAFLAVPVEKEQAPHCICANGRQTVSWAVTPKSLGNVNFTVSAEALESQELCGTEVPSVPEHGRKDTVIKPLLVEPEGLEKETTFNSLLCPSGGEVSEELSLKLPPNVVEESARASVSVLGDILGSAMQNTQNLLQMPYGCGEQNMVLFAPNIYVLDYLNETQQLTPEIKSKAIGYLNTGYQRQLNYKHYDGSYSTFGERYGRNQGNTWLTAFVLKTFAQARAYIFIDEAHITQALIWLSQRQKDNGCFRSSGSLLNNAIKGGVEDEVTLSAYITIALLEIPLTVTHPVVRNALFCLESAWKTAQEGDHGSHVYTKALLAYAFALAGNQDKRKEVLKSLNEEAVKKDNSVHWERPQKPKAPVGHFYEPQAPSAEVEMTSYVLLAYLTAQPAPTSEDLTSATNIVKWITKQQNAQGGFSSTQDTVVALHALSKYGAATFTRTGKAAQVTIQSSGTFSSKFQVDNNNRLLLQQVSLPELPGEYSMKVTGEGCVYLQTSLKYNILPEKEEFPFALGVQTLPQTCDEPKAHTSFQISLSVSYTGSRSASNMAIVDVKMVSGFIPLKPTVKMLERSNHVSRTEVSSNHVLIYLDKVSNQTLSLFFTVLQDVPVRDLKPAIVKVYDYYETDEFAIAEYNAPCSKDLGNADYKDDDDKGASHHHHHH

The binders below were run against T1, ADAMTS4 (assay: cell-based or functional assay).

Q: For B1, which “Protease Inhibition (% of WT)” value is on record?
A: 88 % of WT

Q: For B2, which “Protease Inhibition (% of WT)” value is on record?
A: 64 % of WT

Q: For B3, which “Protease Inhibition (% of WT)” value is on record?
A: 86 % of WT

Each binder was assayed against T2, ADAMTS5 (assay: cell-based or functional assay).

Q: With B1 as the binder, how does the “Protease Inhibition (% of WT)” value read?
A: 100 % of WT

Q: How did the “Protease Inhibition (% of WT)” value turn out when B2 was run?
A: 68 % of WT

Q: How did the “Protease Inhibition (% of WT)” value turn out when B3 was run?
A: 126 % of WT

Each binder was assayed against MMP13 (human, UniProt P45452 104-471, limits assumed) (assay: cell-based or functional assay).

Q: B1 was tested. Which “Protease Inhibition (% of WT)” value did it give?
A: 121 % of WT

Q: For B2, which “Protease Inhibition (% of WT)” value is on record?
A: 115 % of WT

Q: For B3, which “Protease Inhibition (% of WT)” value is on record?
A: 122 % of WT
